# According to patent US6884600B1, “Protein phosphatase-1 catalytic subunit interactions” (Medical Research Council London, priority 1996, dated 2005):
# B1: M110-(M1-E309): rat aorta M110 fragment, residues 1-309, released from GST-fusion protein with thrombin (protein)
# chain: GSPGMKMADAKQKRNEQLKRWIGSETDLEPPVVKRQKTKVKFDDGAVFLAACSSGDTDEVLKLLHRGADINYANVDGLTALHQACIDDNVDMVKFLVENGANINQPDNEGWIPLHAAASCGYLDIAEFLIGQGAHVGAVNSEGDTPLDIAEEEAMEELLQNEVNRQGVDIEAARKEEERIMLRDARQWLNSGHISDVRHAKSGGTALHVAAAKGYTEVLKLLIQAGYDVNIKDYDGWTPLHAAAHWGKEEACRILVDNLCDMETVNKVGQTAFDVADEDILGYLEELQKKQNLLHSEKRDKKSPLIESTANMEA
# What was measured:
# PP1c [1] = molecular target: T1, PP1c (Oryctolagus cuniculus, UniProt P62143); test: Phosphorylase phosphatase activity of PP1c; assay type: biochemical, rabbit
# T1 construct: from tissue; host or cells: rabbit skeletal muscle (PP1G dissociated with LiBr)
# Protocol: (§1) A,B; Effects of M110-(M1-E309) (closed circles), M110-(M1-F38) (open circles) and M110-(D39-E309) (open triangles) on the MLC20 phosphatase […] and phosphorylase phosphatase (B) activities of PP1c were measured after incubating PP1c for 15 minutes at 30° C. with each fragment. The results are presented as a percentage of those obtained in experiments where the M110 fragments were omitted.
# (§2) C,D; The effect of M110-(M1-A150) (open circles) and M110-(L24-Y496) (closed circles) on the MLC20 phosphatase (C) and phosphorylase phosphatase (D) activities of PP1c were measured as in A,B.
# (B) The phosphorylase phosphatase activity of PP1c was assayed as in A in the presence or absence of 1 μM GM-(G63-T93) and 1.0 nM M110-(M1-E309). The results are presented (SEM for three experiments) as a percentage of the PP1c activity measured in the absence of GM-(63-T93), M110-(M1-F38) or M110-(M1-E309).
# (§3) The myosin-associated form of PP1 (PP1M) was from chicken gizzard and the glycogen-associated form of PP1 (PP1G) from rabbit skeletal muscle. The β isoform of PP1c was released from PP1G by incubation for 2 hours in 2M LiBr, then purified by gel-filtration on a 30×1 cm column of Superose 12 (Pharmacia, Milton Keynes, U.K.) in the presence of 0.5M LiBr. Glycogen protein particles from rat liver were used as the source of hepatic PP1G Digoxygenin-labelled PP1c (γ1-isoform, hereafter termed PP1) was prepared as in [9]. GL was expressed in E. coli as a glutathione-S-transferase (GST) fusion protein [7], termed GST-GL. The catalytic subunit of PP2A from bovine heart (PP2AC) was provided by Dr R. MacKintosh in this Unit. The phosphorylatable myosin light chain (MLC20) and heavy meromyosin from chicken gizzard were a gift from Dr M. Ikebe (Case Western Reserve University, Cleveland, USA). Thrombin and benzamidine-Agarose were purchased from Sigma (Poole, UK).
# (§4) ^32P-labelled rabbit skeletal muscle phosphorylase a (containing 1.0 mol phosphate per mol subunit) was prepared by phosphorylation with phosphorylase kinase, ^32P-labelled rabbit skeletal muscle glycogen synthase (containing 1.5 mol/mol subunit in the sites 3 region) was prepared by phosphorylation with glycogen synthase kinase-3 [24]). ^32P-labelled chicken gizzard MLC20 and ^32P-labelled chicken gizzard heavy meromyosin (containing 1.0 mol phosphate per mol subunit) were prepared by phosphorylation with smooth muscle myosin light chain kinase. The dephosphorylation of phosphorylase a (10 μM), glycogen synthase (1 μM) and MLC20 (1 μM) and heavy meromyosin (1 μM) was carried out as in [24]. One unit of activity (U) was that amount which released […] of phosphate in one minute.
# (§5) PP1c was isolated from the rabbit skeletal muscle PP1-GM complex as described previously (Johnson et al, 1996). Glycogen particles isolated from rat liver (Schelling el al, 1988) served as the source of PP1-GL. The dephosphorylation of glycogen phosphorylase (10 μM) and the isolated MLC20 of smooth muscle myosin (1 μM) by PP1c was carried out as described previously (Cohen et al., 1988; Alessi et al., 1992).
# PP1c [2] = molecular target: T1, PP1c; test: MLC20 (myosin P-light chain) phosphatase activity of PP1c; assay type: biochemical
# Protocol: as §1, §2
# (A) The MLC20 phosphatase activity of PP1c was assayed after incubation for 15 minutes at 30° C. in the presence or absence of 1 μM GM-(G63-T93) and either 0.1 μM M110-(M1-F38) or 0.1 nM M110-(M1-E309).
# (1-38, open circles) or M110[M1-K35] (1-35, closed circles) were incubated with PP1c for 15 min at 30° C. and reactions started with the ^32P-labelled MLC20 substrate. The results are expressed as a % of the activity determined in control incubations where the M110 peptides were omitted (100%). Similar results were obtained in three separate experiments.
# as §3, §4, §5
# ^32P-labelled myosin P-light chains containing 1.0 mol phosphate per mol subunit was prepared by phosphorylation with smooth muscle myosin light chain kinase. The dephosphorylation of myosin P-light chain (1 μM) was carried out as in [4] and one unit of activity (U) was that amount which catalysed the release of 1 μmole of phosphate in one min. When assaying PP1M in immunoprecipitates from the myofibrillar extracts, the tubes were shaken continuously and 3 nM okadaic acid was included to inhibit any PP2A present.
# M21 subunit = test: Far Western blotting: interaction with the M21 subunit; assay type: binding, chicken; conditions: probe 0.2 μg/ml
# Outline: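 Proteins (PP1M, M110 and M21 fragments, MBP or GST fusions) resolved on 12% or 16.5% SDS gels, transferred to nitrocellulose and probed with digoxigenin-labelled M21, M21-(M1-L146) or MBP-M110-(K933-I1004) at 0.2 μg/ml. Parallel gels Coomassie-stained; protein by Bradford.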
# T1 sequence (P62143 whole entry): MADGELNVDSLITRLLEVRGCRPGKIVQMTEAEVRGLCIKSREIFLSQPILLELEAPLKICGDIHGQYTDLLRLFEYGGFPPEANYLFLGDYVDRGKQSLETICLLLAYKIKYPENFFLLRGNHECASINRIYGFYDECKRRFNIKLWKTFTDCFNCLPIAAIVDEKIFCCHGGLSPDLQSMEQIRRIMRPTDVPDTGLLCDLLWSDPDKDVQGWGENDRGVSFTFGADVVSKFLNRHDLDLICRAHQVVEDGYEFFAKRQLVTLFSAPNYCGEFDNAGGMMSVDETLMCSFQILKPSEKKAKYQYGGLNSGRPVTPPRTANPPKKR
# Sequence of M21 subunit (as listed by the source): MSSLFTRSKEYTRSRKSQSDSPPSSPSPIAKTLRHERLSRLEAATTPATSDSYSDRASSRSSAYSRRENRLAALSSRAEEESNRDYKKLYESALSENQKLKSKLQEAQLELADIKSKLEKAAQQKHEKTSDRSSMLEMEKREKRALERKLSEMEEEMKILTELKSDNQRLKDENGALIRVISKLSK
molecule,measurement,setting,value
B1,suppression of PP1c activity towards glycogen phosphorylase,PP1c [1],about 80%
same,concentration required to activate the MLC20 phosphatase activity maximally,PP1c [2],0.1 nM
same,increase in PP1c activity towards MLC20 (maximal activation),PP1c [2],about 3 fold
same,recognised by digoxigenin-labelled M21 subunit in Far Western blotting,M21 subunit,not
